Drawing on paper PMC3651084, this text covers response for 13 substances.

The target in this assay is recombinant human HER3-Fc chimera (UniProt P21860). As to the kind of experiment: flow cytometry on staphylococcal-displayed mutants. The conditions noted are these: parent: est. 83; read off a plot.
UniProt P21860, sequence (P21860 20-643, stated change not applied): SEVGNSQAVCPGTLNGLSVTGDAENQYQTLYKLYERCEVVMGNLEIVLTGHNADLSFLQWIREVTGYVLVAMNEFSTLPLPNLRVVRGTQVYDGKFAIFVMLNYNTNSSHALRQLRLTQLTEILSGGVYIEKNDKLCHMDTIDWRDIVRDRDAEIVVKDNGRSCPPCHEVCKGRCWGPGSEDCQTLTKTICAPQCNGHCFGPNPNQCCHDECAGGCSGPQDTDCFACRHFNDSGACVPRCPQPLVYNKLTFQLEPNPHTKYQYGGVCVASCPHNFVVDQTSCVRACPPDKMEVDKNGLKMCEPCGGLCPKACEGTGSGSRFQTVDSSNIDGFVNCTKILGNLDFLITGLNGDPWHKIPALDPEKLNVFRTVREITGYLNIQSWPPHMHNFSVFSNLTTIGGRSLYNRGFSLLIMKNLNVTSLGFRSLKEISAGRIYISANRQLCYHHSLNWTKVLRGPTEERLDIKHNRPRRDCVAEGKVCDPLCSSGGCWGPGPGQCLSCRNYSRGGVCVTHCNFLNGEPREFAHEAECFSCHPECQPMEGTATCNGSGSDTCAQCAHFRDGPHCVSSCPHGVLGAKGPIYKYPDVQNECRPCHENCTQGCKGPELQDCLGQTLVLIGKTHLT
As for “HER3-binding Affibody molecule Z05416, displayed on S. carnosus A28L”, the response came to 87.

As to “HER3-binding Affibody molecule Z05416, displayed on S. carnosus F14A”, the response came to 72.

As for “HER3-binding Affibody molecule Z05416, displayed on S. carnosus K9A”, the response is 43.

On to “HER3-binding Affibody molecule Z05416, displayed on S. carnosus K27A”, for which the response is 100.

Consider “HER3-binding Affibody molecule Z05416, displayed on S. carnosus Q18A”, for which the response came to 71.

As to “HER3-binding Affibody molecule Z05416, displayed on S. carnosus Q35A”, the response came out at 92.

As for “HER3-binding Affibody molecule Z05416, displayed on S. carnosus R25A”, the response came to 91.

With “HER3-binding Affibody molecule Z05416, displayed on S. carnosus S32A”, the response was 93.

With “HER3-binding Affibody molecule Z05416, displayed on S. carnosus T11A”, the response was determined as 86.

“HER3-binding Affibody molecule Z05416, displayed on S. carnosus V24A”: the response worked out at 78.

Turning to “HER3-binding Affibody molecule Z05416, displayed on S. carnosus W17A”, the response was found to be 10.

For the substance “HER3-binding Affibody molecule Z05416, displayed on S. carnosus Y10A”, the response is 10.

On to “HER3-binding Affibody molecule Z05416, displayed on S. carnosus Y13A”, for which the response came out at 66.
